Experimental data published in paper PMC10721955.

Target: Flag-tagged mouse MRTF-A (MAL fl), in vitro translated
Experiment: in vitro protein binding assay (IP/IB of in vitro translated tagged proteins), quantified
Settings: IP: HA-gel (HA-CRP2), three independent experiments, parent: 100, read off a plot

Question: “HA-tagged human CRP2 (cysteine-and glycine-rich protein 2), in vitro translated (from UniProt Q16527) 153L/D; 158L/D” was tested. Which percent of parent did it give?
Answer: 22%

Question: How did the percent of parent turn out when “HA-tagged human CRP2 (cysteine-and glycine-rich protein 2), in vitro translated (from UniProt Q16527) 154E/L; 156T/D; 157T/D” was run?
Answer: 21%
